According to article PMC7957560:

test system: viral hemagglutinin on virions (vHA) (Influenza A virus A/chicken/Kurgan/3654at/2005 (H5N1)); experiment: BLI; settings: BLI at 30 C in sodium-potassium phosphate buffer pH 7.4 ([…]

| Sequence | Kd |
| --- | --- |
| GGGTGGGTGGGAGGG [G7nt-T_T_A] | 0.7 nM |
| GGGTGGGTGGGTGGG [G7nt-T_T_T] | 0.6 nM |
| TTGGGGTTAGGGAGGGCGGGGGTT [G7-TTA_A_C] | 0.04 nM |
| GGGTGGGAGGGTGGG [G7nt-T_A_T] | 0.07 nM |
| TTGGGGTTATTTTGGGAGGGCGGGGGTT [RHA0385] | 0.05 nM |
| GGGTTATTTTGGGAGGGCGGG [G7nt] | 0.13 nM |
| GGGAGGGTGGGTGGG [G7nt-A_T_T] | 0.2 nM |
| TTGGGGTTATTTTGGGAGGGCGGG [G7n3t] | 0.16 nM |
| GGGAGGGAGGGAGGG [G7nt-A_A_A] | 0.2 nM |
| TTGGGGTTATTAAGGGAGGGCGGGGGTT [G7-TTATTAA_A_C] | 0.09 nM |
| GGGTGGGAGGGCGGG [G7nt-T_A_C] | 0.3 nM |
| GGGAGGGAGGGCGGG [G7nt-A_A_C] | 0.3 nM |
| GGGTTATTTTGGGAGGGCGGGGGTT [G7n5t] | 0.04 nM |
